What was measured:
[1] = molecular target: T1, GPC3 protein (Acrobiosystems, cat #GP3-H52H4) (UniProt P51654 25-559); test: ELISA, GPC3 protein coated at 100 ng/well, 100 µl hybridoma culture, anti-mIgG-HRP
T1 construct: Bought protein coated on the ELISA plate at 100 ng/well; also called Glypican 3; GPC3 antigen
Method: First, in order to encode the GPC3 peptide, GPC3 protein (Acrobiosystems, cat #GP3-H52H4) was dispensed into a 96-well plate at an amount of […] and reacted overnight at 4° C. Then, after treatment with 1 X PBST containing 3% BSA, it was blocked for 30 minutes at room temperature.
100 μl of hybridoma cell culture of each clone producing 10E9, 8B2, 7C6, 7B9, 5E11 or 1A8 antibody was treated in each well, reacted at room temperature for 2 hours, and then washed three times with 1 X PBST. The secondary antibody ([…], 1:10,000) was treated and reacted at room temperature for 30 minutes, washed three times with 1 X PBST, and then treated with TMB for color development and reacted at room temperature for 5 minutes. Finally, the reaction was terminated by treatment with a stop solution of 1N H2SO 4, and then the absorbance was measured at 450 nm.

[2] = molecular target: T2, GPC3 expressed on hepatoma cell line HepG2 (human, UniProt P51654 25-554); test: flow cytometry on HepG2 cells, 1 µg antibody, PE anti-mouse IgG secondary; mean fluorescence
T2 construct: whole, on cells; also called GPC3-expressing tumor cells (HepG2); cells expressing GPC3
T2 sequence (P51654 25-554 limits assumed): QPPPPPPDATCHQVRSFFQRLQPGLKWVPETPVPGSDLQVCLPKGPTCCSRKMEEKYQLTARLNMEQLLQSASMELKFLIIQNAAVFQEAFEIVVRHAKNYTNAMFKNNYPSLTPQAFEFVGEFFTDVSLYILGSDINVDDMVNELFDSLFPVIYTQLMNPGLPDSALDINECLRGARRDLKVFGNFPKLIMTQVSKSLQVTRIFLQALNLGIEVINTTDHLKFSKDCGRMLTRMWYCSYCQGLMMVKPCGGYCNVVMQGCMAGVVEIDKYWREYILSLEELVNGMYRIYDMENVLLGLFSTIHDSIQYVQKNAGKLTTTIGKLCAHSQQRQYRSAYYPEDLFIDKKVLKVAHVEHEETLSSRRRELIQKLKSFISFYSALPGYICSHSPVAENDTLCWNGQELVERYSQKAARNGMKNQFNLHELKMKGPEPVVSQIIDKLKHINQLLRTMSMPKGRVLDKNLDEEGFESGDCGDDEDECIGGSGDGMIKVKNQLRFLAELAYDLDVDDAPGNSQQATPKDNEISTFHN
Method: (§1) First, hepatoma cell line HepG2 expressing GPC3 was reacted with 1 μg of each of 10E9, 8B2, 7C6, 7B9, 5E11, and 1A8 antibodies for 30 minutes, and then, after staining the surface with a secondary antibody, it was measured by flow cytometry.
(§2) GPC3 antibody (Sino biology Glypican3 APC cat #100393-R024-A, 10 u.1) was used as a positive control, and PE-conjugated anti-mouse IgG antibody (PE-conjugated goat anti-mouse IgG; Biolegend Inc., cat #405307, USA, 5 μl) was used as a secondary antibody.

[3] = molecular target: T2, GPC3 expressed on hepatoma cell line …; test: flow cytometry on HepG2 cells, 1 µg antibody, PE anti-mouse IgG secondary; median fluorescence
Method: as §1, §2

T1 sequence (P51654 25-559 limits assumed): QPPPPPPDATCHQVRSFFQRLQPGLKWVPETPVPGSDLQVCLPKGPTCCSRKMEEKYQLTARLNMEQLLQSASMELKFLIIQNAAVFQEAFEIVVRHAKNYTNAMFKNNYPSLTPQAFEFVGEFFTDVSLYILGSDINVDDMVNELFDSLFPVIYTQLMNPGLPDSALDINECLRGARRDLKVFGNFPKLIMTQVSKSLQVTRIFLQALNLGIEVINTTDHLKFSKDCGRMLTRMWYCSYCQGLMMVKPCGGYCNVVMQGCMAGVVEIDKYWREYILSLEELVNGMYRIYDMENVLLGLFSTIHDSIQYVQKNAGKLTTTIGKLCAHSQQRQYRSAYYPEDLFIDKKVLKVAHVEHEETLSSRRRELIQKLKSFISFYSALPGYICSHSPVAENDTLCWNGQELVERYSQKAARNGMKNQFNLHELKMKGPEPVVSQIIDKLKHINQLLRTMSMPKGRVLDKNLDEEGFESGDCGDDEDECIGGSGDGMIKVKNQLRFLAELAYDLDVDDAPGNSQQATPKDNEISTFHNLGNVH

Binder	OD450 measurement [1]	Mean [2]	Median [3]
7B9 antibody (antibody, V domains shown, Mouse hybridoma monoclonal antibody, detected with anti-mouse IgG) VH: not shown VL: DIVMTQSPAIMSASPGEKVTMTCRASSSVSSSYLHWYQQKSGASPKLWIYSTSKLASGVPARFSGSGSGTSYSLTISSVEAEDAATYYCQQYSGYPLITFGAGTKVELK	2.54 OD450	27300	22000
5E11 antibody (antibody, V domains shown, Mouse hybridoma monoclonal antibody, detected with anti-mouse IgG) VH: QVQLKQSGAELMKPGASVKISCKATGYTFSRYWIEWVKQRPGHGLEWIGEILPGSGSTSYNEKFKGKATFTADTSSNTAYMQLSSLTSEDSAVYYCARSARATYYFDYWGQGTTLTVSS VL: DIQMTQTTSSLSASLGDRVTISCWASQDISNYLNWYQQKPDGTVKLLIYYTSTLHSGVPSRFSGSGSGTDYSLTISNLEQEDIATYFCQQGNALPYTFGGGTKLEIK	0.942 OD450	52600	40200
1A8 antibody (antibody, V domains shown, Mouse hybridoma monoclonal antibody, detected with anti-mouse IgG) VH: QVQLQQPGSELVRPGASVKLSCKASGYTFTSYWMHWVKQRHGQGLEWIGNIYPGSGSTNYDEKFKSKGTLTVDTSSRTAYMHLSSLTSEDSAVYYCTRGHYDYAMDYWGQGTSVTVSS VL: DIVMTQSPSSLSASLGDTITITCHASQNINVWLSWYQQKPGNIPKLLIYKTSNLHTGVPSRFSGSGSGTGFTLTISSLQPEDIATYYCQQGQSYPWTFGGGTKLEIK	2.65 OD450	36600	29000
7C6 antibody (antibody, V domains shown, Mouse hybridoma monoclonal antibody, detected with anti-mouse IgG) VH: QVQLQQPGAELVKPGASVKLSCKASGYTFTTYYMYWVKQRPGQGLEWIGEINPSNGGTNFNEKFKSKATLTVDKSSSTAYMQLSSLTSEDSAVYYCTTFAYWGQGTLVTVSA VL: DIVMTQSPSSLSASLGGKVTITCKASQDINKYIVWYQHKPGKGPRLLIHYTSILQPGIPSRFSGSGSGRDYSFSISNLEPEDIATYYCLQYDNLWTFGGGTKLEIK	2.88 OD450	81400	61800

Other lines, results leading:

OD450 measurement [1]	Mean [2]	Median [3]	Binder
1.01 OD450	40000	31400	8B2 antibody (antibody, V domains shown, Mouse hybridoma monoclonal antibody, detected with anti-mouse IgG) VH: QVQLQQPGAELVKPGASVKMSCKASGYTFTSYNMHWVKQTPGQGLEWIGAIYPGNGYTSYNQKFKGKATLTADKSSSTAYMQLSSLTSEDSAVYYCARGGGPFAYWGQGTLVTVSA VL: DIVMTQSHKFMSTSVGDRVSITCKASQDVGTAVAWYQQKPGQSPKLLIYWPSTRHTGVPDRFTGSGSGTDFTLTISNVQSEDLADYFCQQYSSYPFTFGSGTKLEIK
2.32 OD450	33000	25200	10E9 antibody (antibody, V domains shown, Mouse hybridoma monoclonal antibody, detected with anti-mouse IgG; Used as hybridoma culture supernatant in the ELISA) VH: EVQLEESGTVLARPGASVKMSCKASGYTFTSYWMHWIKQRPGQGLEWIGAIYPGNSDTSYNQKFKGKAKLTAVTSTSTAYMELSSLTNEDSAVYYCTRGEYDYVLAYWGQGTLVTVSA VL: DIVMTQSPATLSVTPGDSVSLSCRASQSISNNLHWYQQKSHESPRLLIKFASQSISGIPSRFSGSGSGTDFTLSINSVETEDFGMYFCQQSNSWPHMYTFGGGTKLEIK

Source: patent publication US20240018262A1 (INNOBATION BIO, published 2024)
